± gives the standard deviation.

Protein stability index data for 36 sequences are collected here from the supplement of paper PMC10567573.

A short description of the series: protein stability index of a GFP-peptide fusion (GPS, HEK-293T) (PSI 1-6); higher = more stable. As to conditions: c terminus: a fixed tail appended.
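Note: 24-mer peptide tiles fused after GFP, lentivirally expressed, FACS-sorted into six equal bins by GFP/DsRed ratio, decoded by Illumina sequencing, PSI is the read-weighted mean bin number.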

In the case of GQVTPRGLRLRLPRRESLLRGLCR [C6orf223], the protein stability index (treatment: DMSO) is 3.24 ± 0.33 and the protein stability index (treatment: MLN4924 1 uM, 8 h) was 3.23 ± 0.34.
Turning to GRARFTTYEVRMRTNLPIFKLKES [SNX12], the protein stability index turned out to be 2.27 ± 0.11 (treatment: DMSO) and 2.17 ± 0.22 (treatment: MLN4924 1 uM, 8 h).
In the case of GRKRRQTSMTDFYHSKRRLIFSKR [CDKN1A], the protein stability index runs as follows: (treatment: DMSO) 3.35 ± 0.51; (treatment: MLN4924 1 uM, 8 h) 4.07 ± 0.38.
Taken in the same sequence, the figures for GSAPNSPMALLTIGSSSEKEIDDV [TFE3] were 5.26 ± 0.28 and 5.55 ± 0.18.
For GSAVARAVCKATTHEVMGPKKKHL [SNAP91], the protein stability index by setting is: (treatment: DMSO) 4.58 ± 0.19; (treatment: MLN4924 1 uM, 8 h) 4.83 ± 0.17.
The matching figures for GSSRPCLDFLQEVTRQPRNLQDLC [ASB7]: 3.9 ± 0.31 and 3.97 ± 0.23.
For the sequence GSSYPTTTISYLPHAPPFAGGHPA [JUNB], the protein stability index runs as follows: (treatment: DMSO) 3.12 ± 0.14; (treatment: MLN4924 1 uM, 8 h) 3.09 ± 0.13.
The matching figures for GTPADTGDLSPGHGASAPSVSREA [PWWP2B]: 5.29 ± 0.18 and 5.56 ± 0.22.
With GTTLRGRSDADLVVFLSPLTTFQD [OAS1], the protein stability index was determined as 2.18 ± 0.4 (treatment: DMSO) and 2.28 ± 0.31 (treatment: MLN4924 1 uM, 8 h).
Taken in the same sequence, the figures for GVRDSGSPPLHANTSLHVFVLDEN [PCDHGC5] were 3.51 ± 0.21 and 3.51 ± 0.24.
For the sequence GVYGLQRNLLVENIIDIYKQESTR [TRIM55], the protein stability index runs as follows: (treatment: DMSO) 2.61 ± 0.47; (treatment: MLN4924 1 uM, 8 h) 2.95 ± 0.49.
Taken in the same sequence, the figures for GWWKRLFTLKEEKPKMYFMTMIVS [ARL6IP1] were 2.95 ± 0.66 and 2.04 ± 0.57.
The matching figures for GYNLTSISESMAACTRSLLGDPPP [HDAC6]: 3.52 ± 0.38 and 3.4 ± 0.2.
Taken in the same sequence, the figures for HEGEDQFLSLEASTETLVHVSDED [DLC1] were 5.61 ± 0.17 and 5.58 ± 0.32.
Take HEKERPEHKSLESLADGGSASPIK [FANCE]: the protein stability index is, setting by setting: (treatment: DMSO) 5.49 ± 0.21; (treatment: MLN4924 1 uM, 8 h) 5.31 ± 0.25.
The sequence HEQALFIYVHILKDTRMAEEYCHK [VPS39] returned a protein stability index (treatment: DMSO) of 2.57 ± 0.62 and a protein stability index (treatment: MLN4924 1 uM, 8 h) of 2.4 ± 0.59.
For the sequence HFDVLPTEFTLGDDKHYGGFTNKQ [PTPRD], the protein stability index (treatment: DMSO) was determined as 4.48 ± 0.16 and the protein stability index (treatment: MLN4924 1 uM, 8 h) worked out at 4.47 ± 0.25.
On to HHPENGEEAVTVLEDLESELDDPG [ZNF24], for which the protein stability index (treatment: DMSO) worked out at 5.49 ± 0.22 and the protein stability index (treatment: MLN4924 1 uM, 8 h) is 5.65 ± 0.16.
Take HHVPGGGNVKIDSQKLNFREHAKA [MAP2]: the protein stability index reads like this: (treatment: DMSO) 4.3 ± 0.43; (treatment: MLN4924 1 uM, 8 h) 4.4 ± 0.27.
The matching figures for HKACEVAPLQSVFQGQKTELNNCI [TRIM63]: 3.78 ± 0.12 and 3.67 ± 0.41.
In turn, HKHVHFSSSFTSIASEWFLIANRS [SLC22A15] had a protein stability index (treatment: DMSO) of 2.43 ± 0.57 and a protein stability index (treatment: MLN4924 1 uM, 8 h) of 2.04 ± 0.33.
On to HLDIWKSAAWMKERTSPGAIHYCA [SPDEF], for which the protein stability index came out at 2.21 ± 0.39 (treatment: DMSO) and 2.4 ± 0.32 (treatment: MLN4924 1 uM, 8 h).
The matching figures for HLDRTSVSSLSEVEEVDMAEEFEQ [ELOA2]: 5.66 ± 0.34 and 5.48 ± 0.4.
Regarding HLGCMHYTVRAPVGVAGLISPWNL [ALDH8A1], the protein stability index was determined as 2.48 ± 0.97 (treatment: DMSO) and 2.31 ± 0.64 (treatment: MLN4924 1 uM, 8 h).
HLLSWFSPTIIFDNWIPLLWCANI [DHCR7]: the protein stability index reads like this: (treatment: DMSO) 2.98 ± 0.18; (treatment: MLN4924 1 uM, 8 h) 3.08 ± 0.21.
Regarding HLTRHQRTHTGEKPYKCTLCGENF [ZNF263], the protein stability index (treatment: DMSO) amounted to 3.36 ± 0.53 and the protein stability index (treatment: MLN4924 1 uM, 8 h) amounted to 3.45 ± 0.51.
In the case of HMESRMVTETEETQEKKAESKEPI [SDE2], the protein stability index is, setting by setting: (treatment: DMSO) 5.48 ± 0.17; (treatment: MLN4924 1 uM, 8 h) 5.46 ± 0.47.
The matching figures for HNDRVQALSYAQHTRQLISCGGDG [WDFY2]: 2.77 ± 0.28 and 2.53 ± 0.17.
Take HRAVASRSEEAVQVLIKHSADVNA [ANKRD44]: the protein stability index runs as follows: (treatment: DMSO) 4.5 ± 0.28; (treatment: MLN4924 1 uM, 8 h) 4.47 ± 0.31.
Taken in the same sequence, the figures for HSAVARISRAQYNALTLTFQRAMH [STX11] were 2.08 ± 0.31 and 2.14 ± 0.19.
The matching figures for HTFNAHAATDITGFGILGHSQNLA [SEPHS2]: 3 ± 0.35 and 3.04 ± 0.24.
The matching figures for HTGEKPYKCLECGKAFSQNSGLIN [ZNF24]: 2.68 ± 0.19 and 2.88 ± 0.21.
Consider HTRSPYSTFYPPYHSPELTTPPGH [NEUROD6], for which the protein stability index is, setting by setting: (treatment: DMSO) 3.23 ± 0.14; (treatment: MLN4924 1 uM, 8 h) 3.18 ± 0.15.
As to HWNSTIKRKVDTGGFLSESKDCKP [MYBL2], the protein stability index runs as follows: (treatment: DMSO) 3.93 ± 0.57; (treatment: MLN4924 1 uM, 8 h) 4.12 ± 0.32.
With HWPQGPTGPPGPPGPMGPPGPPGP [EMID1], the protein stability index runs as follows: (treatment: DMSO) 4.66 ± 0.22; (treatment: MLN4924 1 uM, 8 h) 4.73 ± 0.45.
Taken in the same sequence, the figures for HYMEENLMDGGDLPSVTDIRRPRL [PLK2] were 4.15 ± 0.16 and 4.22 ± 0.13.
